The record followed here is paper PMC4160017, “Poly(ADP‐ribose)‐mediated interplay of XPA and PARP1 leads to reciprocal regulation of protein function”.

In this data set the target is XPA (UniProt P23025 1-273). Nature of the data set: EMSA; XPA pre-incubated with short PAR (16-20-mer), no effect on binding; EMSA: 25 mM Hepes-KOH pH 8.3, 30 mM KCl, 0.4 mM MgCl2, 1 mM EDTA, 10% glycerol, 45 ug/mL BSA, 0.9 mM DTT; 30 min; temperature not stated. Poly(ADP-ribose) overlay binding (XPA, H1, BSA, PBM peptides) not listed: PAR is not DNA/RNA. The note with it: protein: recombinant; tags: His-tag; label: biotin on the 19-mer; duplex of 19-mer and 25-mer with loop on one strand.
Chain of XPA (P23025 whole entry): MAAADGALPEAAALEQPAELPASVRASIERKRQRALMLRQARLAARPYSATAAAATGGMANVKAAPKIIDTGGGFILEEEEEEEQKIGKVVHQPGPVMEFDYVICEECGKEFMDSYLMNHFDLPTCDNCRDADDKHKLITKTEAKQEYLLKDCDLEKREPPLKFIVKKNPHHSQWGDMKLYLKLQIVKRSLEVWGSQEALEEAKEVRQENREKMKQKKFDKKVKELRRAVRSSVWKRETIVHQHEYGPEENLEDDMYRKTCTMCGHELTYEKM

B1: loop-containing duplex (19-mer annealed with 25-mer) (dsDNA)
DNA 1: ACCACCCTTCGAACCACAC
DNA 2: GTGTGGTTCGCGCGCGAAGGGTGGT
For the molecule B1, the binding result was “binds”.
